Measured values taken from patent US20260275312, “CRISPR NUCLEASE POLYPEPTIDES AND GENE EDITING SYSTEMS COMPRISING SUCH” (ARBOR BIOTECHNOLOGIES, INC., published 2026).

Key:
Conditions in all cases: tags: N-term SV40 NLS, XTEN linker + C-term nucleoplasmin NLS
[1] = target: T1, Nuclease H (synthetic construct); experiment: cell_activity; HEK293T; PAM CAC 3'
T1 chain: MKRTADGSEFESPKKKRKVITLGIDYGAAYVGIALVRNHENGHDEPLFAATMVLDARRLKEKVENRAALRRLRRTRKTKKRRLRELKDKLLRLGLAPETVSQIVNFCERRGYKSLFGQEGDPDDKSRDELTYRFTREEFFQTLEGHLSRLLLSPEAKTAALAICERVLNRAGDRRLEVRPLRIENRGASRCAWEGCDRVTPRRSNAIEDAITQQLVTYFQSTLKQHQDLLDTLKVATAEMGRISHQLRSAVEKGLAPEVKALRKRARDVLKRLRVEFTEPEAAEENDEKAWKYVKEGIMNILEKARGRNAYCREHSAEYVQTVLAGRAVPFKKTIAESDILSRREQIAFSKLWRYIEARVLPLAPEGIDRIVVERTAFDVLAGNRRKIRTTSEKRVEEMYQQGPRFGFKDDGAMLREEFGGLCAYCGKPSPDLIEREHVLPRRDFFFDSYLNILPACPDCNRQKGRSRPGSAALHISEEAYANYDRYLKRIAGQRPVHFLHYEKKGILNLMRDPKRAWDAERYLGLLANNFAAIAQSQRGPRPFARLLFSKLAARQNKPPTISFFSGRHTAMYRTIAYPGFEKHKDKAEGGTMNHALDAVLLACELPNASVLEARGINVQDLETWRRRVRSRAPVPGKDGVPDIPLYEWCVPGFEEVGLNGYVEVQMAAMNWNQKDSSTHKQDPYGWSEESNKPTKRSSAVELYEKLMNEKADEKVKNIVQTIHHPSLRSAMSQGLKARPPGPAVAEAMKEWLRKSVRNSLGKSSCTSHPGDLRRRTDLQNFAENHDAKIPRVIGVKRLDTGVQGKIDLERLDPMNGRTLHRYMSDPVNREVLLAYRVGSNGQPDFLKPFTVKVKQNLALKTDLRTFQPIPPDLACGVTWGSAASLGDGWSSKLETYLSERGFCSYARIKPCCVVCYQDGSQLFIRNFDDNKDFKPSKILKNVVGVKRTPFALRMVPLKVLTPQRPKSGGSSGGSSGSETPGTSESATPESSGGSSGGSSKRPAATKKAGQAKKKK

[2] = target: T2, Nuclease H T783R (synthetic construct, T783R); experiment: cell_activity; HEK293T; PAM CAC
T2 chain: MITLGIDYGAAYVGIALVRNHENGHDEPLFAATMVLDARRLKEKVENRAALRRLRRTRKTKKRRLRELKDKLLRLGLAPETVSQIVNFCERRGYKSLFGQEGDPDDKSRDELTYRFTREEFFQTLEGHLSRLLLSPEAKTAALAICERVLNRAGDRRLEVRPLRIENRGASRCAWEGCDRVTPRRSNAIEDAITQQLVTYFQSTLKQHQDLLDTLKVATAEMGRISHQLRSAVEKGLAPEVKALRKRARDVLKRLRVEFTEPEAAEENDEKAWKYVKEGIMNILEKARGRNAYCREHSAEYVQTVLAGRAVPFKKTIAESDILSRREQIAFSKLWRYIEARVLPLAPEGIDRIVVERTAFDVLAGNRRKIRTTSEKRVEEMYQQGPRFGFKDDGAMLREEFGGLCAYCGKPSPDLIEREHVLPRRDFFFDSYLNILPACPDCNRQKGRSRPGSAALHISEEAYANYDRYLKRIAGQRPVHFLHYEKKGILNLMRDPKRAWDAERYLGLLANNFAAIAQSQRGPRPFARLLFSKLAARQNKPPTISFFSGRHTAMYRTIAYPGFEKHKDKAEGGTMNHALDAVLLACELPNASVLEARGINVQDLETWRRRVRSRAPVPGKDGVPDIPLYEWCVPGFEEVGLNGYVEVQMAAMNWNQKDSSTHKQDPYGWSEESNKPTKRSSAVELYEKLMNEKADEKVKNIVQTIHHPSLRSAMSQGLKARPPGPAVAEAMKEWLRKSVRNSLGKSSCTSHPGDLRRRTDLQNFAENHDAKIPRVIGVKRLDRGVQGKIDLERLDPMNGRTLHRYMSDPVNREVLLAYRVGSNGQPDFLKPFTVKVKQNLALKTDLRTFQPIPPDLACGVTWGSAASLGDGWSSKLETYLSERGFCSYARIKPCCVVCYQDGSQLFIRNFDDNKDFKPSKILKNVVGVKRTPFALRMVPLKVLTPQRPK
Experimental: (§1) HEK293T cells were transfected with plasmids expressing the Nuclease H polypeptides and the gRNAs provided herein following the methods provided in Example 1 above. Gene editing efficiencies were determined by NGS following the methods also provided in Example 1. The NGS results were analyzed also following the methods provided in Example 1 above.
Indel ratios, referring to the percentage of NGS reads comprising indels, were calculated for the reference and for each variant. The indel ratios used for fold change calculations were the average of two technical replicates. To then calculate fold change in indel ratios, the indel ratio for each variant was divided by the indel ratio for the reference. […] Numbering is relative to the reference nuclease of SEQ ID NO: 64 (i.e., without an NLS).

[3] = target: T3, Nuclease S (synthetic construct); experiment: cell_activity; HEK293T; PAM AGCC 3'
T3 chain: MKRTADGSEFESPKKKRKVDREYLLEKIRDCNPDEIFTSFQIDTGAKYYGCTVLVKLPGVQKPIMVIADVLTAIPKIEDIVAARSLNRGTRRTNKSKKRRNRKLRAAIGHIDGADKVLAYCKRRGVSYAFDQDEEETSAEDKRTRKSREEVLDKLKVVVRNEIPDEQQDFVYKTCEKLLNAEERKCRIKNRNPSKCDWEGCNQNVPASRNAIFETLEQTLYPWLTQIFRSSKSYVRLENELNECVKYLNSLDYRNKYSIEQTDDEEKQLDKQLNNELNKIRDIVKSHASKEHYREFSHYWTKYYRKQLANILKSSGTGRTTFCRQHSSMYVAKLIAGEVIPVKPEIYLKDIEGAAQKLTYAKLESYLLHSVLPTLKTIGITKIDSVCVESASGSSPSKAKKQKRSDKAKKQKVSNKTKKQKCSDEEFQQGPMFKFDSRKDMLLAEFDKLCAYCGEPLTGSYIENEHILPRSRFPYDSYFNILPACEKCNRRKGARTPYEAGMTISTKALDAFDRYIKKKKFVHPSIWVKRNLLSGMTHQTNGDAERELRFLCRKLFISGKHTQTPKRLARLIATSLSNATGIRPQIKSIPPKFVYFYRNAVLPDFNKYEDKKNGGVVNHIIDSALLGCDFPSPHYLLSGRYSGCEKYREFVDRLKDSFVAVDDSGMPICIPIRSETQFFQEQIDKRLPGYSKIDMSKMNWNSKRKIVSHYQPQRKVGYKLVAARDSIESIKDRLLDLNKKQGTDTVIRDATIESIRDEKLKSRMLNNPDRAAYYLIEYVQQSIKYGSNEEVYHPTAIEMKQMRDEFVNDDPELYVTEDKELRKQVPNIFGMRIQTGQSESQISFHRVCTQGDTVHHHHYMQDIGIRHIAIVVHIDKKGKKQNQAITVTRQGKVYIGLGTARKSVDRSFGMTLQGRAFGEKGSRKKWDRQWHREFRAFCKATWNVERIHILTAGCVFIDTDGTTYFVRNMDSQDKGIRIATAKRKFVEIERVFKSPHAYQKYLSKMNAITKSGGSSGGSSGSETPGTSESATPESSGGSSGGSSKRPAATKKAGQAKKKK
Experimental: as §1, with “Nuclease S” for “Nuclease H”
Each Nuclease S variant was cloned as described in Example 6. HEK293T cells were further transfected with a plasmid encoding a Nuclease S variant and a plasmid encoding an RNA guide of Table 11, followed by NGS analysis, as described in Example 5. For each target, indel ratios, referring to the percentage of NGS reads comprising indels, were calculated for the reference Nuclease S (SEQ ID NO: 49) and for each Nuclease S variant. The indel ratios shown in Table 13 were calculated as the average of two bioreplicates, each of which contained two technical replicates.

[4] = target: T1, Nuclease H; experiment: cell_activity; HEK293T; PAM GAC 3'

B1: H EMX1-T5 RNA guide ; EMX1-T5 target (H) (ssRNA ; dsDNA)
RNA: GAGGCCUGGAGUCAUGGCCCGUUUCAAUCAACCUGAUCUCUCUGCUUGCGCUGCAGGCUUCAUAAGAUCAGUAGGUUGAAAAGAGCAUCCGUCCGACAUGCACUCCGGGAUGGGGCAGUCCCGGCUCUUGCGGUUCCCGAUGCAGUUAUGUGUCCGCGGAACACGGUGUCGGACACGUCGCAAGACAGGAUGUGAGCCCAUUAUCCACAUUAGGAUCAAUGUACGCAUGAGCAGUCCGCAAUGCCGGGGACGCU
DNA 1: GAGGCCTGGAGTCATGGCCC
DNA 2: GGGCCATGACTCCAGGCCTC
[1]
  activity: 0.032 indel ratio
[2]
  fold change in indel ratio vs reference: 4.33 fold indel vs reference

B2: S EMX1-T4 RNA guide ; EMX1-T4 target (S) (ssRNA ; dsDNA)
RNA: AUGACUCCAGGCCUCCCCAAGUUGUAUUCGGAUGGGAGUAAAAGGUUGAGUACACCUGGAAACAAAACGACAUAAAGGUGUUCUCCCAUCUGUGUACAAAGAGCAGAUAUAUGAGUUGAUAAGUAAUAUGUUGCACGUAUGGACUUUGACAGUCUGUACCUCUGCGUGAAAGACAUAUUGCGUUAUUCAUAUAUCUGUGAGUCUGUUCUAAAUUUAAAGGUUUAGGGAA
DNA 1: ATGACTCCAGGCCTCCCCAA
DNA 2: TTGGGGAGGCCTGGAGTCAT
[3]
  activity: 0.0265 indel ratio

B3: H VEGFA-T6 RNA guide ; VEGFA-T6 target (H) (ssRNA ; dsDNA)
RNA: GACUCUUCAAAUCCUCCCUUGUUUCAAUCAACCUGAUCUCUCUGCUUGCGCUGCAGGCUUCAUAAGAUCAGUAGGUUGAAAAGAGCAUCCGUCCGACAUGCACUCCGGGAUGGGGCAGUCCCGGCUCUUGCGGUUCCCGAUGCAGUUAUGUGUCCGCGGAACACGGUGUCGGACACGUCGCAAGACAGGAUGUGAGCCCAUUAUCCACAUUAGGAUCAAUGUACGCAUGAGCAGUCCGCAAUGCCGGGGACGCU
DNA 1: GACTCTTCAAATCCTCCCTT
DNA 2: AAGGGAGGATTTGAAGAGTC
[4]
  activity: 0.0378 indel ratio

B4: S VEGFA-T4 RNA guide ; VEGFA-T4 target (S) (ssRNA ; dsDNA)
RNA: CUCUACACAAAUCUCUCCAGGUUGUAUUCGGAUGGGAGUAAAAGGUUGAGUACACCUGGAAACAAAACGACAUAAAGGUGUUCUCCCAUCUGUGUACAAAGAGCAGAUAUAUGAGUUGAUAAGUAAUAUGUUGCACGUAUGGACUUUGACAGUCUGUACCUCUGCGUGAAAGACAUAUUGCGUUAUUCAUAUAUCUGUGAGUCUGUUCUAAAUUUAAAGGUUUAGGGAA
DNA 1: CTCTACACAAATCTCTCCAG
DNA 2: CTGGAGAGATTTGTGTAGAG
[3]
  activity: 0.0333 indel ratio
